Assay results taken from FireProtDB (doi:10.1002/pro.5560041213).

B1: High-potential iron-sulfur protein isozyme 1, P04168 (parent)
chain: EPRAEDGHAHDYVNEAADASGHPRYQEGQLCENCAFWGEAVQDGWGRCTHPDFDEVLVKAEGWCSVYAPAS

Variants of: B1
Settings: Halorhodospira halophila, Thermal, DSC, reversible: yes, structure 2HIP, whole UniProt chain shown

| Variant | Tm (pH 7, MOPS 20 mM) [°C] | Tm (pH 9, TAPS 20 mM) [°C] | Tm (pH 10, CAPS 20 mM) [°C] | Tm (pH 10.8, CHES 20 mM) [°C] |
| --- | --- | --- | --- | --- |
| Y12W | 37.4 | – | – | – |
| Y12F | – | 54.4 | 54.2 | 37.1 |
| Y12H | 42.2 | 39 | – | – |
